Among the data in PMC5511259 are relative LUC activity activated by GAL4-Hd1^ZS (full-length CDS of Hd1 from ZS97) in rice protoplasts with increasing dosage of 35S:Ghd7-CFP (2, 4, 10 μg); decreased from 7.0 to 0.8 (relative LUC activity) values, retold here.

This test addresses Hd1 segment (aa112–337) between the zinc finger domain and the CCT domain (rice (Oryza sativa L.)) (UniProt Q9FDX8).
Sequence of UniProt Q9FDX8 (Q9FDX8 112-337): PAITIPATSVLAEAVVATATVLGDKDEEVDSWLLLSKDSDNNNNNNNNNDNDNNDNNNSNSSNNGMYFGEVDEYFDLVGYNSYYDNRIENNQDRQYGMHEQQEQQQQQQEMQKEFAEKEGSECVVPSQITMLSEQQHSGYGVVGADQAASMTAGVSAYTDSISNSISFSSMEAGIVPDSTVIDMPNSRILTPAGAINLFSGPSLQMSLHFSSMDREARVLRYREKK

Take “Ghd7 (aa187–257) segment containing the CCT domain (from UniProt E5RQA1 187-257) (domain or fragment)”: the relative LUC activity activated by GAL4-Hd1^ZS (full-length CDS of Hd1 from ZS97) in rice protoplasts with increasing dosage of 35S:Ghd7-CFP (2, 4, 10 μg); decreased from 7.0 to 0.8 (relative LUC activity) stood at 7.
